Reference: US20170266254A1 (AILERON THERAPEUTICS, published 2017)
Bridges are numbered along the chain shown (N, C = ends). [ ]: non-standard residue; d: D form. R8 = C=CCCCCCC[C@@](C)(N)C(=O)O; S5 = C=CCCC[C@](C)(N)C(=O)O

T1: C-terminally 6x Histidine-tagged Beta-Catenin (aa 134-668, 59 KD) (UniProt P35222 134-668)
T1 construct: range 134-668; Armadillo repeat region
T1 sequence: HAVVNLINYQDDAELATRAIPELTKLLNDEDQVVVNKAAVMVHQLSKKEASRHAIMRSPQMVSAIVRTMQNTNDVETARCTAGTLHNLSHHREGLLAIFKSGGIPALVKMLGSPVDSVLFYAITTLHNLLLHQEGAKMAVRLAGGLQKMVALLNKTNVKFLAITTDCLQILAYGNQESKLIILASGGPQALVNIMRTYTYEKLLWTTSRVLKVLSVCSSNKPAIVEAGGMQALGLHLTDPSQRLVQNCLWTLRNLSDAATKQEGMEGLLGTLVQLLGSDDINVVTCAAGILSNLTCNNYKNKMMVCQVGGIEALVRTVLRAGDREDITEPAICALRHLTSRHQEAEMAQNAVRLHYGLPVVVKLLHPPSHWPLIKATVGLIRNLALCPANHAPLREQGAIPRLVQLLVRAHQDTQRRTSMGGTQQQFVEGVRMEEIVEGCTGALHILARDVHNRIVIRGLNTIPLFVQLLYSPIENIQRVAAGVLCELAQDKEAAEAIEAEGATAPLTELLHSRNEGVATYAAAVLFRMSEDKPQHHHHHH


Target: T1, C-terminally 6x Histidine-tagged …
Assay: competitive fluorescence polarization, FAM-labelled linear probe as competitor, His-tagged beta-catenin 134-668
Summary of the method: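 FP competition in 25 mM Tris-HCl pH 7.5, 200 mM NaCl, 5 mM CHAPS, 2 mM DTT at room temperature. Competitor peptides at 40–0.7 μM 2× working range, constant DMSO. Probe (benchmark peptide with N-terminal FAM via β-Ala spacer) from 25 nM 10× stock. Read after 3 h in the dark, ex 485/em 528 nm.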

Binder | IC50 [µM]
LGANDELISFADEGAQEEKSSNNSSAARDLAAVKSSLV (not fully specified; N-terminal acetyl; C-terminal amide; $ = (S)-alpha-(2'-pentenyl)alanine at positions 11 and 15 (first crosslink) and 27 and 31 (second crosslink), each pair joined by an all-carbon crosslinker with one double bond) [SP59] | 0.3
LGANDELISFANEGAQEEKSSNNSSAARDLADVKSSLV (not fully specified; N-terminal acetyl; C-terminal amide; $ = (S)-alpha-(2'-pentenyl)alanine at positions 11 and 15 (first crosslink) and 27 and 31 (second crosslink), each pair joined by an all-carbon crosslinker with one double bond) [SP62] | 0.07
Ac-LGANDELISF[S5]NEG[S5]QAEKSSNNSSA[S5]RNL[S5]DVKSSLV-NH2 (staple 11-15, 27-31; SMILES CC[C@H](C)[C@H](NC(=O)[C@H](CC(C)C)NC(=O)[C@H](CCC(=O)O)NC(=O)[C@H](CC(=O)O)NC(=O)[C@H](CC(N)=O)NC(=O)[C@H](C)NC(=O)CNC(=O)[C@H](CC(C)C)NC(C)=O)C(=O)N[C@@H](CO)C(=O)N[C@@H](Cc1ccccc1)C(=O)N[C@@]1(C)CCCC=CCCC[C@@](C)(C(=O)N[C@@H](CCC(N)=O)C(=O)N[C@@H](C)C(=O)N[C@@H](CCC(=O)O)C(=O)N[C@@H](CCCCN)C(=O)N[C@@H](CO)C(=O)N[C@@H](CO)C(=O)N[C@@H](CC(N)=O)C(=O)N[C@@H](CC(N)=O)C(=O)N[C@@H](CO)C(=O)N[C@@H](CO)C(=O)N[C@@H](C)C(=O)N[C@@]2(C)CCCC=CCCC[C@@](C)(C(=O)N[C@@H](CC(=O)O)C(=O)N[C@H](C(=O)N[C@@H](CCCCN)C(=O)N[C@@H](CO)C(=O)N[C@@H](CO)C(=O)N[C@@H](CC(C)C)C(=O)N[C@H](C(N)=O)C(C)C)C(C)C)NC(=O)[C@H](CC(C)C)NC(=O)[C@H](CC(N)=O)NC(=O)[C@H](CCCNC(=N)N)NC2=O)NC(=O)CNC(=O)[C@H](CCC(=O)O)NC(=O)[C@H](CC(N)=O)NC1=O) [SP63] | 1.19
Ac-LGANDELISW[S5]DEG[S5]QQEKSSENSSA[S5]RDL[S5]NVKSSLV-NH2 (staple 11-15, 27-31; SMILES CC[C@H](C)[C@H](NC(=O)[C@H](CC(C)C)NC(=O)[C@H](CCC(=O)O)NC(=O)[C@H](CC(=O)O)NC(=O)[C@H](CC(N)=O)NC(=O)[C@H](C)NC(=O)CNC(=O)[C@H](CC(C)C)NC(C)=O)C(=O)N[C@@H](CO)C(=O)N[C@@H](Cc1c[nH]c2ccccc12)C(=O)N[C@@]1(C)CCCC=CCCC[C@@](C)(C(=O)N[C@@H](CCC(N)=O)C(=O)N[C@@H](CCC(N)=O)C(=O)N[C@@H](CCC(=O)O)C(=O)N[C@@H](CCCCN)C(=O)N[C@@H](CO)C(=O)N[C@@H](CO)C(=O)N[C@@H](CCC(=O)O)C(=O)N[C@@H](CC(N)=O)C(=O)N[C@@H](CO)C(=O)N[C@@H](CO)C(=O)N[C@@H](C)C(=O)N[C@@]2(C)CCCC=CCCC[C@@](C)(C(=O)N[C@@H](CC(N)=O)C(=O)N[C@H](C(=O)N[C@@H](CCCCN)C(=O)N[C@@H](CO)C(=O)N[C@@H](CO)C(=O)N[C@@H](CC(C)C)C(=O)N[C@H](C(N)=O)C(C)C)C(C)C)NC(=O)[C@H](CC(C)C)NC(=O)[C@H](CC(=O)O)NC(=O)[C@H](CCCNC(=N)N)NC2=O)NC(=O)CNC(=O)[C@H](CCC(=O)O)NC(=O)[C@H](CC(=O)O)NC1=O) [SP61] | 1
LGANDELISFANEGAQEEKSSNNSSAARNLADVKSSLV (not fully specified; N-terminal acetyl; C-terminal amide; $ = (S)-alpha-(2'-pentenyl)alanine at positions 11 and 15 (first crosslink) and 27 and 31 (second crosslink), each pair joined by an all-carbon crosslinker with one double bond) [SP64] | 0.541
Ac-LGANDELISF[S5]NQG[S5]QAAKSSNNSSA[S5]RNL[S5]AVKSSLV-NH2 (staple 11-15, 27-31; SMILES CC[C@H](C)[C@H](NC(=O)[C@H](CC(C)C)NC(=O)[C@H](CCC(=O)O)NC(=O)[C@H](CC(=O)O)NC(=O)[C@H](CC(N)=O)NC(=O)[C@H](C)NC(=O)CNC(=O)[C@H](CC(C)C)NC(C)=O)C(=O)N[C@@H](CO)C(=O)N[C@@H](Cc1ccccc1)C(=O)N[C@@]1(C)CCCC=CCCC[C@@](C)(C(=O)N[C@@H](CCC(N)=O)C(=O)N[C@@H](C)C(=O)N[C@@H](C)C(=O)N[C@@H](CCCCN)C(=O)N[C@@H](CO)C(=O)N[C@@H](CO)C(=O)N[C@@H](CC(N)=O)C(=O)N[C@@H](CC(N)=O)C(=O)N[C@@H](CO)C(=O)N[C@@H](CO)C(=O)N[C@@H](C)C(=O)N[C@@]2(C)CCCC=CCCC[C@@](C)(C(=O)N[C@@H](C)C(=O)N[C@H](C(=O)N[C@@H](CCCCN)C(=O)N[C@@H](CO)C(=O)N[C@@H](CO)C(=O)N[C@@H](CC(C)C)C(=O)N[C@H](C(N)=O)C(C)C)C(C)C)NC(=O)[C@H](CC(C)C)NC(=O)[C@H](CC(N)=O)NC(=O)[C@H](CCCNC(=N)N)NC2=O)NC(=O)CNC(=O)[C@H](CCC(N)=O)NC(=O)[C@H](CC(N)=O)NC1=O) [SP60] | ≥ 100
Ac-LGANDELISF[S5]DEG[S5]QEEKSSN-NH2 (staple 11-15; SMILES CC[C@H](C)[C@H](NC(=O)[C@H](CC(C)C)NC(=O)[C@H](CCC(=O)O)NC(=O)[C@H](CC(=O)O)NC(=O)[C@H](CC(N)=O)NC(=O)[C@H](C)NC(=O)CNC(=O)[C@H](CC(C)C)NC(C)=O)C(=O)N[C@@H](CO)C(=O)N[C@@H](Cc1ccccc1)C(=O)N[C@@]1(C)CCCC=CCCC[C@@](C)(C(=O)N[C@@H](CCC(N)=O)C(=O)N[C@@H](CCC(=O)O)C(=O)N[C@@H](CCC(=O)O)C(=O)N[C@@H](CCCCN)C(=O)N[C@@H](CO)C(=O)N[C@@H](CO)C(=O)N[C@@H](CC(N)=O)C(N)=O)NC(=O)CNC(=O)[C@H](CCC(=O)O)NC(=O)[C@H](CC(=O)O)NC1=O) [SP16] | ≥ 100
Ac-LGANDELISFKDEG[S5]QEE[S5]SSN-NH2 (staple 15-19; SMILES CC[C@H](C)[C@H](NC(=O)[C@H](CC(C)C)NC(=O)[C@H](CCC(=O)O)NC(=O)[C@H](CC(=O)O)NC(=O)[C@H](CC(N)=O)NC(=O)[C@H](C)NC(=O)CNC(=O)[C@H](CC(C)C)NC(C)=O)C(=O)N[C@@H](CO)C(=O)N[C@@H](Cc1ccccc1)C(=O)N[C@@H](CCCCN)C(=O)N[C@@H](CC(=O)O)C(=O)N[C@@H](CCC(=O)O)C(=O)NCC(=O)N[C@@]1(C)CCCC=CCCC[C@@](C)(C(=O)N[C@@H](CO)C(=O)N[C@@H](CO)C(=O)N[C@@H](CC(N)=O)C(N)=O)NC(=O)[C@H](CCC(=O)O)NC(=O)[C@H](CCC(=O)O)NC(=O)[C@H](CCC(N)=O)NC1=O) [SP18] | 60.1
Ac-LGANDELISFK[S5]EGE[S5]EEKSSN-NH2 (staple 12-16; SMILES CC[C@H](C)[C@H](NC(=O)[C@H](CC(C)C)NC(=O)[C@H](CCC(=O)O)NC(=O)[C@H](CC(=O)O)NC(=O)[C@H](CC(N)=O)NC(=O)[C@H](C)NC(=O)CNC(=O)[C@H](CC(C)C)NC(C)=O)C(=O)N[C@@H](CO)C(=O)N[C@@H](Cc1ccccc1)C(=O)N[C@@H](CCCCN)C(=O)N[C@@]1(C)CCCC=CCCC[C@@](C)(C(=O)N[C@@H](CCC(=O)O)C(=O)N[C@@H](CCC(=O)O)C(=O)N[C@@H](CCCCN)C(=O)N[C@@H](CO)C(=O)N[C@@H](CO)C(=O)N[C@@H](CC(N)=O)C(N)=O)NC(=O)[C@H](CCC(=O)O)NC(=O)CNC(=O)[C@H](CCC(=O)O)NC1=O) [SP17] | 52.9
Ac-LGANDELISF[R8]DEGEQE[S5]KSSN-NH2 (staple 11-18; SMILES CC[C@H](C)[C@H](NC(=O)[C@H](CC(C)C)NC(=O)[C@H](CCC(=O)O)NC(=O)[C@H](CC(=O)O)NC(=O)[C@H](CC(N)=O)NC(=O)[C@H](C)NC(=O)CNC(=O)[C@H](CC(C)C)NC(C)=O)C(=O)N[C@@H](CO)C(=O)N[C@@H](Cc1ccccc1)C(=O)N[C@]1(C)CCCCCCC=CCCC[C@@](C)(C(=O)N[C@@H](CCCCN)C(=O)N[C@@H](CO)C(=O)N[C@@H](CO)C(=O)N[C@@H](CC(N)=O)C(N)=O)NC(=O)[C@H](CCC(=O)O)NC(=O)[C@H](CCC(N)=O)NC(=O)[C@H](CCC(=O)O)NC(=O)CNC(=O)[C@H](CCC(=O)O)NC(=O)[C@H](CC(=O)O)NC1=O) [SP20] | ≥ 100
Ac-LGANDELISFKDEGE[S5]EEK[S5]SN-NH2 (staple 16-20; SMILES CC[C@H](C)[C@H](NC(=O)[C@H](CC(C)C)NC(=O)[C@H](CCC(=O)O)NC(=O)[C@H](CC(=O)O)NC(=O)[C@H](CC(N)=O)NC(=O)[C@H](C)NC(=O)CNC(=O)[C@H](CC(C)C)NC(C)=O)C(=O)N[C@@H](CO)C(=O)N[C@@H](Cc1ccccc1)C(=O)N[C@@H](CCCCN)C(=O)N[C@@H](CC(=O)O)C(=O)N[C@@H](CCC(=O)O)C(=O)NCC(=O)N[C@@H](CCC(=O)O)C(=O)N[C@@]1(C)CCCC=CCCC[C@@](C)(C(=O)N[C@@H](CO)C(=O)N[C@@H](CC(N)=O)C(N)=O)NC(=O)[C@H](CCCCN)NC(=O)[C@H](CCC(=O)O)NC(=O)[C@H](CCC(=O)O)NC1=O) [SP19] | ≥ 100
Ac-LGANDELISFKDEGEQEEKSS-NH2 (Linear, not crosslinked) [SP15] | 6.08
